These results are taken from US20250304677A1 (VIB VZW, published 2025).

For orientation: IC50 means the concentration that inhibits the measured activity by half. One may read the koff as the rate constant with which the complex falls apart. In general, EC50 (read off the curve) refers to the concentration giving half of the maximal effect. The EC50 is the concentration at which the effect is half-maximal. Usually Kd stands for the free concentration of one partner at which half of the binding sites on the other are occupied at equilibrium, for simple one-to-one binding. As usually defined, the kon is a measure of how fast the partners come together.

Assay [1] concerns the target T1, human folate receptor alpha (hFRα), recombinant protein (human, UniProt P15328 25-233).
T1 construct: Bought recombinant proteins (His-tagged, or biotinylated via Avi-tag, e.g. AcroBiosystems FO1-H82E2, F01-H52H1); also called hFOLR1; huFOLR1
Kind of assay: competition AlphaLISA against 2MFR67-Flag3-His6 on human FRα. The procedure: Secondly, the variants were analysed for the capacity to compete with binding of family 3 VHH 2MFR67 to human FRα in a competition AlphaLISA, which is a homogeneous assay without wash steps. In here, human FRα biotinylated through an Avi-tag ^{∘}FO1-H82E2, AcroBiosystems) is captured on streptavidin coated Alpha Donor beads ^{∘}Perkin Elmer, Cat nr. 6760002), while the 2MFR67 is captured on anti-Flag antibody AlphaLISA acceptor beads ^{∘}Perkin Elmer, Cat nr. AL112C). Binding of 2MFR67 to the FRα leads to an energy transfer from one bead to the other, ultimately producing a fluorescent signal. To each well of white low binding 384-well microtitre plates ^{∘}F-bottom, Greiner Cat nr 781904), 5 μl of serial-diluted VHHs are mixed with 5 μl of 2.5 nM monovalent 2MFR67-Flag3-His6 and 5 μl of 15 nM biotinylated human FRα protein. After an incubation for 1 hour at room temperature, streptavidin coated Alpha Donor beads and anti-Flag AlphaLISA acceptor beads were added to a final concentration of 20 μg/mL each in a final volume of 25 μl for an incubation of 1 hour at room temperature in the dark. Interaction between beads was assessed after illumination at 680 nm and reading at 615 nm of on an Ensight instrument. Curve fitting is done in Graphpad Prism 9.0 using 4PL non-linear regression analysis.
For orientation: Bead proximity is the source of the signal in Alpha formats.

For assay [2], the target named is T1, human folate receptor alpha (hFRα), …. Description: BLI, Avi-biotinylated FRα on streptavidin biosensors, VHH 100 nM. The procedure:
(§1) The binding of humanized variants of 2HFO42 was assessed by kinetic binding analysis to mouse and human FRα protein, biotinylated via an Avi-tag, captured on streptavidin biosensors by biolayer interferometry ^{∘}BLI), essentially as described earlier. VHHs were analysed at 100 nM concentration, and off-rates were determined using fitting of 1:1 langmurian interaction. Dissociation constants were compared to 2HFO42^{∘}Q1E, Q5V, Q108L) ^{∘}P101500004) and 2MFR67 ^{∘}Q1E, Q5V, Q108L) ^{∘}P0150000), respectively.
On the technique in general: BLI is a label-free optical method that tracks binding on a fibre tip over time.

Assay [3] concerns the target T2, mouse folate receptor alpha (mFRα), recombinant protein (mouse, UniProt P35846 25-232).
T2 construct: Bought recombinant proteins (e.g. biotinylated, Acro Biosystems FO1-M82E9); also called mFOLR1; Ms FOLR1
The description is as above. As to the method:
as §1

Assay [4] has as its target T2, mouse folate receptor alpha (mFRα), …. Kind of assay: ELISA on mouse FRα, anti-VHH detection. The method in brief:
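An ELISA using anti-VHH detection measured how VHH binding to mouse folate receptor alpha changed with dose. Each EC50 was read from the resulting dose-response curve.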
(ELISA stands for enzyme-linked immunosorbent assay.)

For assay [5], the target named is T3, human folate receptor alpha expressed on cells (transfected HEK293T, HeLa, MCF7, MDA-MB-231) (human, UniProt P15328 25-234).
T3 construct: HEK293T transiently transfected with human FOLR1; also called native human FRα; cell-expressed human FOLR1
T3 sequence (P15328 25-234 limits assumed): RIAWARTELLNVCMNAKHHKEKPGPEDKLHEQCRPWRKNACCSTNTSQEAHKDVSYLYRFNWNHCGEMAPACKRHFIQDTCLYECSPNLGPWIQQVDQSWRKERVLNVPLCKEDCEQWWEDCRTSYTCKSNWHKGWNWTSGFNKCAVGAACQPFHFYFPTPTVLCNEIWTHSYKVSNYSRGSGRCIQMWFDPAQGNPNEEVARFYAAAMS
Description: flow cytometry on HeLa cells, anti-Flag detection. As to the method:
EC₅₀ values are found in Table 9. Detection of VHH cell binding was done through anti-Flag M2 mIgG1 followed by anti-mFc-PE in flow cytometry. Results are depicted as mean fluorescence intensity ^{∘}MFI).
(§2) Off-rates of purified variants were determined to human, mouse, and cynomolgus FRα in BLI. In addition, binding of the affinity optimised variants to cell-expressed human FRα on HeLa cells was determined by flow cytometry ^{∘}FIG. 10 B).

Assay [6] has as its target T2, mouse folate receptor alpha (mFRα), …. Kind of assay: BLI, VHH captured by anti-FLAG antibody on mouse Fc biosensors. The method in brief: (§3)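 Binding kinetics of VHHs to rhesus monkey, mouse and human folate receptor alpha were obtained by biolayer interferometry after capture of the VHHs via an anti-FLAG tag antibody on mouse Fc biosensors. Values for kon, koff and the equilibrium dissociation constant (KD) were fitted to a 1:1 binding model.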

Assay [7] has as its target T4, rhesus monkey folate receptor alpha, recombinant (rhesus monkey, UniProt F7BP60 25-233).
T4 construct: also called rhFolR1; rhesus macaque FRα
Described as above. The method in brief: as §3

In assay [8] the target is T1, human folate receptor alpha (hFRα), …. Kind of assay: BLI, Avi-biotinylated FRα. The procedure:
(§4) Purified VHHs ^{∘}100 nM) were analysed for binding to avi-tagged biotinylated FRα protein captured on streptavidin-biosensors via BLI.
as §2

Assay [9] addresses T2, mouse folate receptor alpha (mFRα), …. Description: BLI, Avi-biotinylated FRα. The procedure:
as §4, §2

The target in assay [10] is T1, human folate receptor alpha (hFRα), …. Description: BLI. The method in brief: (§5)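 Biolayer interferometry was used to measure off-rates, with biotinylated human and mouse folate receptor alpha immobilised on streptavidin biosensors, and koff was calculated from the data. The fit used a 1:1 binding model. Each variant's fold change is taken against its own wild-type VHH: wild-type koff divided by variant koff when the variant's off-rate is better, and the negative of variant koff divided by wild-type koff when it is worse.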

Assay [11] concerns the target T2, mouse folate receptor alpha (mFRα), …. Kind of assay: BLI. The method in brief:
as §5

Assay [12] concerns the target T1, human folate receptor alpha (hFRα), …. Kind of assay: BLI, purified VHH. The method in brief: (§6)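 VHH proteins carrying a flag3-His6 tag were expressed in TG-1 E. coli at 0.5 L scale. Each was purified from the periplasmic fraction on Ni Sepharose FastFlow columns, then desalted, and its purity was checked by SDS-PAGE. Biolayer interferometry was used to measure off-rates to human, mouse and cynomolgus folate receptor alpha.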

Assay [13] deals with T2, mouse folate receptor alpha (mFRα), …. Description: BLI, purified VHH. The method in brief: as §6
In assay [14] the target is T5, cynomolgus folate receptor alpha, recombinant (cynomolgus, UniProt A0A2K5U044 25-233).
T5 construct: also called cyFOLR1; cynomolgus FRα
T5 sequence (A0A2K5U044 entry or part of it): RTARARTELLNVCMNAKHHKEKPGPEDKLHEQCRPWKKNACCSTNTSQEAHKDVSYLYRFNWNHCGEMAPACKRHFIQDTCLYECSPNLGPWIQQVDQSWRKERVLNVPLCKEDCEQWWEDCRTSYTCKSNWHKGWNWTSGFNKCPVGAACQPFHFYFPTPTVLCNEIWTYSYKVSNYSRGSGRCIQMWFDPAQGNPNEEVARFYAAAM
Kind of assay: BLI, purified VHH. The method in brief: as §6

Substitutions are numbered along the chain they refer to. Names and notes keep the numbering of the source.

T4 sequence (F7BP60 entry or part of it): as the sequence (A0A2K5U044 entry or part of it) above
T2 sequence (P35846 25-232 limits assumed): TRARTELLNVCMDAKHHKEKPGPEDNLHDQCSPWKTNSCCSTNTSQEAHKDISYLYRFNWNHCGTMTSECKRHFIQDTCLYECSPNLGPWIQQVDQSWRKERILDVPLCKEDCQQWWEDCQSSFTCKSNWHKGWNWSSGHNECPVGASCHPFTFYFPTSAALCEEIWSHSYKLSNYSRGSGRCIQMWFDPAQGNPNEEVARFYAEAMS
T1 sequence (P15328 25-233 limits assumed): as the sequence (A0A2K5U044 entry or part of it) above, with T2I, R4W, K37R, P146A, Y171H counted along it

B1: P01500002 = h2 variant 2HFO42: 2HF042(Q1E, Q5V, A14P, V40A, L79Y, K83R, K105Q, Q108L)-HIS6 (VHH)
VHH: EVQLVESGGGLVQPGGSLRLSCAASGSGFSGMIMGWYRQAPGKQRELVATVTSHGTTNYADSVKGRFTISRDNAKNTVYLQMNSLRPEDTAVYYCNAHFPGIYWGQGTLVTVSS
notes: Entry includes the tag
Consider B1, for which, in assay [1], the IC50 was determined as 43.7 nM. Further, the koff stood at 0.0132 s⁻¹ in assay [2] and 0.00307 s⁻¹ in [3]. The “EC50 (read off the curve)” value in [4] is approximately 5 nM.

B2: P01500006: 2HF042(Q1E, Q5V, A14P, V40A, L79Y, K83R, Q108L)-FLAG3-HIS6 (VHH)
VHH: B1 VHH with Q106K
notes: Entry includes the tags; also called P0150006
In [5], B2 displayed a concentration giving a half-maximal response (EC50) of 32.4 nM. This molecule gave an MFI top in assay [5] of 35300 MFI. Moreover, the equilibrium dissociation constant (Kd) came out at 6.77 nM in assay [6] and 27.7 nM in [7]. Further, the koff in assay [6] stood at 0.00249 s⁻¹; in [7], 0.016 s⁻¹; in assay [8], 0.00967 s⁻¹; in [9] it was 0.00189 s⁻¹; in assay [2], 0.012 s⁻¹; in [3], 0.00252 s⁻¹. Also, the off-rate (koff) was found to be 0.0132 s⁻¹ in [10]; 0.00162 s⁻¹ in assay [11]; 0.00947 s⁻¹ in [12]; 0.00174 s⁻¹ in assay [13]; 0.00158 s⁻¹ in assay [14]. Moreover, the kon in [6] was 367000 M⁻¹ s⁻¹; in assay [7] it was 577000 M⁻¹ s⁻¹. Besides, the “nm (Fold wt)” value in assay [10] and in [11] was 1 each time.

B3: P01500004: 2HF042(Q1E, Q5V, Q108L)-HIS6 (VHH)
VHH: B1 VHH with P14A, A40V, Y79L, R86K, Q106K
notes: Entry includes the tag; also called 2HFO42 (P01500004); Nb42
In the case of B3, in assay [1], the IC50 was 39 nM. Besides, the dissociation rate constant (koff) stood at 0.0102 s⁻¹ in [2] and 0.00193 s⁻¹ in assay [3]. Also, the concentration giving a half-maximal response (EC50 (read off the curve)) in assay [4] was approximately 4 nM.

B4: P01500003: 2HF019(Q1E, Q5V, Q108L)-HIS6 (VHH)
VHH: EVQLVESGGGLVQPGGSLRVSCAASGFPFSTVYMSWVRQAPGKGLEWVSGINNDGGVIDYADSVKGRFTISRDNAKNTLYLQLNSLKPEDTALYFCARGRSFVATLSSSLRGQGTLVTVSS
notes: Entry includes the tag; also called 2HFO19 (P01500003); Nb19
Turning to B4, the IC50 in assay [1] stood at 7.55 nM. Further, the koff in [2] stood at 0.00499 s⁻¹; in assay [3], 0.00052 s⁻¹.
